Consider 1 molecule from article PMC10454580, “Exploring the Binding Affinity of the ARR2 GARP DNA Binding Domain via Comparative Methods”.

Holding throughout (conditions): protein: recombinant; tags: N-terminal 8xHis-MBP; label: 5' biotin on antisense strand (DPI-ELISA); 5' Alexa647 on antisense strand (FCS); unlabeled (MST); blunt
On the technique in general: An ELISA detects its analyte on a solid surface through an enzyme-linked reagent.

Data set [1] addresses T1, His8-MBP-GARP2 (ARR2 GARP DNA-binding domain) (UniProt Q9ZWJ9 211-275).
T1 sequence: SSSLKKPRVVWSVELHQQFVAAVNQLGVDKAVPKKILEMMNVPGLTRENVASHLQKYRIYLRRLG
In words: MST; thermophoresis 42/3; bounds 259.5-988.2; MST: PBS-T, 250 nM protein, 25 nM RED-tris-NTA, 40% MST power, 22-26 C; FCS: PBS, 25 C; qDPI-ELISA: TBS/TBS-T (20 mM Tris, 0.18 M NaCl, pH 7.5, 0.1% Tween-20).

For data set [2], the target named is T1, His8-MBP-GARP2 (ARR2 GARP DNA-binding …). The experiment in a line: MST; thermophoresis 46/3; bounds 192.7-1173.8; MST: PBS-T, 250 nM protein, 25 nM RED-tris-NTA, 40% MST power, 22-26 C; FCS: PBS, 25 C; qDPI-ELISA: TBS/TBS-T (20 mM Tris, 0.18 M NaCl, pH 7.5, 0.1% Tween-20).
Data set [3] shares this target. In words: MST; thermophoresis 43/3; bounds 260.4-960.9; MST: PBS-T, 250 nM protein, 25 nM RED-tris-NTA, 40% MST power, 22-26 C; FCS: PBS, 25 C; qDPI-ELISA: TBS/TBS-T (20 mM Tris, 0.18 M NaCl, pH 7.5, 0.1% Tween-20).
Data set [4] has the same target. The experiment in a line: MST; T-jump region 2/1; ESP bounds 33.9-203.5; MST: PBS-T, 250 nM protein, 25 nM RED-tris-NTA, 40% MST power, 22-26 C; FCS: PBS, 25 C; qDPI-ELISA: TBS/TBS-T (20 mM Tris, 0.18 M NaCl, pH 7.5, 0.1% Tween-20).
Data set [5] has the same target. In words: MST; inverse T-jump 6/5; bounds 471.3-1412.8; MST: PBS-T, 250 nM protein, 25 nM RED-tris-NTA, 40% MST power, 22-26 C; FCS: PBS, 25 C; qDPI-ELISA: TBS/TBS-T (20 mM Tris, 0.18 M NaCl, pH 7.5, 0.1% Tween-20).
Data set [6] has the same target. The experiment in a line: MST; back diffusion 8/7; bounds 61.0-374.4; MST: PBS-T, 250 nM protein, 25 nM RED-tris-NTA, 40% MST power, 22-26 C; FCS: PBS, 25 C; qDPI-ELISA: TBS/TBS-T (20 mM Tris, 0.18 M NaCl, pH 7.5, 0.1% Tween-20).
The target is the same in data set [7]. In words: MST; thermophoresis 48/3; bounds 240.8-1742.8; MST: PBS-T, 250 nM protein, 25 nM RED-tris-NTA, 40% MST power, 22-26 C; FCS: PBS, 25 C; qDPI-ELISA: TBS/TBS-T (20 mM Tris, 0.18 M NaCl, pH 7.5, 0.1% Tween-20).
Data set [8] shares this target. The experiment in a line: MST; thermophoresis 45/3; bounds 218.2-1077.2; MST: PBS-T, 250 nM protein, 25 nM RED-tris-NTA, 40% MST power, 22-26 C; FCS: PBS, 25 C; qDPI-ELISA: TBS/TBS-T (20 mM Tris, 0.18 M NaCl, pH 7.5, 0.1% Tween-20).
Data set [9] has the same target. The experiment in a line: MST; thermophoresis 44/3; bounds 229.7-868.7; MST: PBS-T, 250 nM protein, 25 nM RED-tris-NTA, 40% MST power, 22-26 C; FCS: PBS, 25 C; qDPI-ELISA: TBS/TBS-T (20 mM Tris, 0.18 M NaCl, pH 7.5, 0.1% Tween-20).
Data set [10] shares this target. The experiment in a line: MST; thermophoresis 49/3; bounds 200.6-1912.2; MST: PBS-T, 250 nM protein, 25 nM RED-tris-NTA, 40% MST power, 22-26 C; FCS: PBS, 25 C; qDPI-ELISA: TBS/TBS-T (20 mM Tris, 0.18 M NaCl, pH 7.5, 0.1% Tween-20).
The target is the same in data set [11]. In words: MST; thermophoresis 47/3; bounds 202.0-1474.6; MST: PBS-T, 250 nM protein, 25 nM RED-tris-NTA, 40% MST power, 22-26 C; FCS: PBS, 25 C; qDPI-ELISA: TBS/TBS-T (20 mM Tris, 0.18 M NaCl, pH 7.5, 0.1% Tween-20).
For data set [12] the target is unchanged. The experiment in a line: MST; thermophoresis 410/3; bounds 211.1-2267.5; MST: PBS-T, 250 nM protein, 25 nM RED-tris-NTA, 40% MST power, 22-26 C; FCS: PBS, 25 C; qDPI-ELISA: TBS/TBS-T (20 mM Tris, 0.18 M NaCl, pH 7.5, 0.1% Tween-20).
For data set [13] the target is unchanged. In words: MST; thermophoresis 41/3; bounds 250.9-787.3; MST: PBS-T, 250 nM protein, 25 nM RED-tris-NTA, 40% MST power, 22-26 C; FCS: PBS, 25 C; qDPI-ELISA: TBS/TBS-T (20 mM Tris, 0.18 M NaCl, pH 7.5, 0.1% Tween-20).

B1: wtOligo (ARR5 promoter fragment) (dsDNA)
DNA 1: TTAACAATCTCAAAGATTTTGTAGATTGAAATACAAATCTTCTCT
DNA 2: AGAGAAGATTTGTATTTCAATCTACAAAATCTTTGAGATTGTTAA
Turning to B1, the Kd (usually the free concentration of one partner at which half of the binding sites on the other are occupied at equilibrium, for simple one-to-one binding) in [1] was 526 ± 178 nM; in data set [2], 506 ± 246 nM; in data set [3] it was 520 ± 172 nM; in data set [4], 93.3 ± 40.3 nM; in [5] it was 826 ± 222 nM; in data set [6] it was 166 ± 74.3 nM. For the same molecule, the dissociation constant Kd came to 679 ± 376 nM in data set [7]; 510 ± 212 nM in data set [8]; 462 ± 163 nM in data set [9]; 660 ± 419 nM in data set [10]; 578 ± 317 nM in [11]; 738 ± 505 nM in [12]. Also, the Kd in data set [13] was determined as 456 ± 132 nM.
